Assay results taken from IntAct's records for PubMed 18532879.

B1: Nuclear polyadenylated RNA-binding protein 4 (Saccharomyces cerevisiae), Q99383 (parent)
chain: MSSDEEDFNDIYGDDKPTTTEEVKKEEEQNKAGSGTSQLDQLAALQALSSSLNKLNNPNSNNSSSNNSNQDTSSSKQDGTANDKEGSNEDTKNEKKQESATSANANANASSAGPSGLPWEQLQQTMSQFQQPSSQSPPQQQVTQTKEERSKADLSKESCKMFIGGLNWDTTEDNLREYFGKYGTVTDLKIMKDPATGRSRGFGFLSFEKPSSVDEVVKTQHILDGKVIDPKRAIPRDEQDKTGKIFVGGIGPDVRPKEFEEFFSQWGTIIDAQLMLDKDTGQSRGFGFVTYDSADAVDRVCQNKFIDFKDRKIEIKRAEPRHMQQKSSNNGGNNGGNNMNRRGGNFGNQGDFNQMYQNPMMGGYNPMMNPQAMTDYYQKMQEYYQQMQKQTGMDYTQMYQQQMQQMAMMMPGFAMPPNAMTLNQPQQDSNATQGSPAPSDSDNNKSNDVQTIGNTSNTDSGSPPLNLPNGPKGPSQYNDDHNSGYGYNRDRGDRDRNDRDRDYNHRSGGNHRRNGRGGRGGYNRRNNGYHPYNR
partner: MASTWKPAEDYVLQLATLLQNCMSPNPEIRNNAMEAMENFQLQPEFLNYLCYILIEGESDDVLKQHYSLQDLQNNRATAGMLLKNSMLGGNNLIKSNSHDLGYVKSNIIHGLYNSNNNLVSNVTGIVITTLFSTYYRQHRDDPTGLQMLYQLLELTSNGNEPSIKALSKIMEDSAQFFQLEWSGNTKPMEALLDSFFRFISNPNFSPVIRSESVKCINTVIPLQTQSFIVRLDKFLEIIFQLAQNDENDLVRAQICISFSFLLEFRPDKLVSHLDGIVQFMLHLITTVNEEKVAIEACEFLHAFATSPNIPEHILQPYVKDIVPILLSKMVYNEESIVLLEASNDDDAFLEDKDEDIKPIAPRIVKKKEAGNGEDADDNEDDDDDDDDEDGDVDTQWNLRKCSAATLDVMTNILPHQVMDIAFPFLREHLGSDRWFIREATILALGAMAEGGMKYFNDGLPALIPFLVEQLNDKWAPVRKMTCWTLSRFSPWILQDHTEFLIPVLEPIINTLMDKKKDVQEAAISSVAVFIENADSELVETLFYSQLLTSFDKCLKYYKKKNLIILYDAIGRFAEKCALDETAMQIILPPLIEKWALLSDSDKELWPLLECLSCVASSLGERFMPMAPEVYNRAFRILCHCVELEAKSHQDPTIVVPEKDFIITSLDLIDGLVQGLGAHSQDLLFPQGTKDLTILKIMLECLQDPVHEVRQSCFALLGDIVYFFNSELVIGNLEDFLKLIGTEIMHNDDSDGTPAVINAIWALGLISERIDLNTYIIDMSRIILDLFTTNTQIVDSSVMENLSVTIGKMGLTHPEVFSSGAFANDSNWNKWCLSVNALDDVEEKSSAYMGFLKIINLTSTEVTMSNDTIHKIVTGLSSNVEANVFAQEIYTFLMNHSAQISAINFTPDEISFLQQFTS
B2: Nuclear polyadenylated RNA-binding protein NAB2 (Saccharomyces cerevisiae), P32505 (parent)
chain: MSQEQYTENLKVIVAEKLAGIPNFNEDIKYVAEYIVLLIVNGGTVESVVDELASLFDSVSRDTLANVVQTAFFALEALQQGESAENIVSKIRMMNAQSLGQSDIAQQQQQQQQQQQPDIAQQQPQQQPQQQPQQQPQQQPQQQPQQQPQQQPQQQPQLQPLQPQLGTQNAMQTDAPATPSPISAFSGVVNAAAPPQFAPVDNSQRFTQRGGGAVGKNRRGGRGGNRGGRNNNSTRFNPLAKALGMAGESNMNFTPTKKEGRCRLFPHCPLGRSCPHAHPTKVCNEYPNCPKPPGTCEFLHPNEDEELMKEMERTREEFQKRKADLLAAKRKPVQTGIVLCKFGALCSNPSCPFGHPTPANEDAKVIDLMWCDKNLTCDNPECRKAHSSLSKIKEVKPISQKKAAPPPVEKSLEQCKFGTHCTNKRCKYRHARSHIMCREGANCTRIDCLFGHPINEDCRFGVNCKNIYCLFRHPPGRVLPEKKGAAPNSNVPTNERPFALPENAIIENAPPQTSFTHQEQDTEMN
partner: B1 partner

Variants of: B1
Conditions: with imb2_yeast KAP104, P38217

Row | effect of a mutation on the interaction | Variant
1 | disrupting interaction strength | R512A;R513A;R516A;R519A
2 | disrupting interaction strength | Y532F
3 | disrupting interaction strength | Y532H
4 | disrupting interaction strength | Y532M
5 | disrupting interaction | Y529A

Variants of: B2
Conditions: with imb2_yeast KAP104, P38217

Row | effect of a mutation on the interaction | Variant
6 | disrupting interaction strength | L239I
7 | disrupting interaction strength | L239D
8 | disrupting interaction strength | L239E
9 | disrupting interaction strength | L239P
10 | disrupting interaction | R222A;P238A;L239A
11 | disrupting interaction | F236A
12 | disrupting interaction strength | R218A;R219A;R222A;R226A;R229A
13 | disrupting interaction | R235A
14 | disrupting interaction | K216A;N217A;R218A;R219A
15 | disrupting interaction | R235A;P238A;L239A
16 | disrupting interaction | P238A;L239A
